Experiments:
[1] = test system: Adult male Sprague-Dawley rats; test: Cardiomyocyte cell cycle activity in vivo after intramyocardial injection; parameters: species or system rat; LVFW CM nuclei: unit not given here
Procedure: Experiments were performed in accordance with institutional guidelines of Massachusetts General Hospital. Injections and analyses were performed in a blinded fashion. Adult male Sprague-Dawley rats (300 gm, Charles River Laboratories) underwent thoracotomy and received intramyocardial injections of 50 μg of recombinant human periostin consisting of the fas1-4 domains, 50 μg of rat fibronectin, or 100 μL of 100 mM sodium acetate as a control (5 rats per group). The survival rate for this procedure was 80%. Injected periostin was confirmed by detection with a polyclonal antibody directed against human periostin (Abcam) and visualized by immunofluorescence microscopy. Intraperitoneal injections of BrdU (70 μmol/kg body weight) with a tissue half life of 2 hr were given every 48 hr, and rats were sacrificed after the third injection. Horizontal cryosections of 14 μm thickness spaced at 1 mm intervals were analyzed by laser scanning immunofluorescence microscopy. BrdU-positive cardiomyocyte nuclei and cytokineses were quantified on 16-20 sections per heart. Fibrosis and cardiomyocyte cross-sectional area were determined on 5 Masson's Trichrome-stained sections at the level of the injection at 40× magnification and quantified using the Metamorph software package (Molecular Devices Corp., Downingtown, Pa.).

[2] = test system: primary adult rat ventricular cardiomyocytes; test: Cytokinesis (aurora B kinase) in primary adult rat ventricular cardiomyocytes; format: cell-based
Excerpt: (§1) Primary neonatal rat ventricular cardiomyocytes were isolated using the Neomyts kit (Cellutron, Highland Park, N.J.), seeded at a density of 10^5 cells/cm^2 onto gelatin-coated cover slips, stimulated for 3 days, and labeled with BrdU for the terminal 2 days. Primary adult ventricular cardiomyocytes were isolated from male (300 gm) Wistar rats (Charles River Laboratories) and maintained as described (Engel, F. B. et al. p38 MAP kinase inhibition enables proliferation of adult mammalian cardiomyocytes. Genes Dev 19, 1175-87 (2005)). Adult cardiomyocytes were stimulated daily for 9 days and labeled with 30 μM BrdU for the terminal 3 days. Cardiomyocytes were stimulated with periostin (500 ng/mL) and FGF (100 ng/mL). Inhibiting antibodies were added at a concentration of 10 μg/mL, cRGD at 10 μM, U0126 at 10 μM, PD98059 at 1 μM, LY294002 at 10 μM, and Wortmannin at 0.1 μM 30 min prior to stimulation. The vehicle used to dissolve factors or chemicals was added to unstimulated samples, which were then processed together with the test samples.
(§2) DNA-synthesis was analyzed by visualization of BrdU uptake and cytokinesis was determined by detection of the cleavage furrow and the midbody with an antibody against aurora B kinase as described (Engel, F. B. et al. p38 MAP kinase inhibition enables proliferation of adult mammalian cardiomyocytes. Genes Dev 19, 1175-87 (2005)). Signals were visualized with secondary antibodies conjugated to Alexa 488, Alexa 546, Alexa 594, and Alexa 647 (Invitrogen). Nuclei were visualized with 4′,6′-diamidino-2-phenylindole (DAPI, Invitrogen). For image acquisition, the value for γ was set at 1 and the lookup table settings were linear.

ERK1/2 and Akt = conditions: neonatal cardiomyocytes
Procedure: Primary cardiomyocytes or heart tissue were lysed in 20 mM Tris (pH 7.5), 150 mM NaCl, 10 mM EDTA, 1 mM EGTA, 1% Triton X-100, […], 1 mM β-glycerol phosphate, 1 mM Na3VO4, 1 μg/ml, leupeptin, 1% NP-40 and 0.24 mg/mL Pefabloc SC (Roche) at 4° C. Protein concentrations were determined using the BCA assay (Pierce, Rockford, Ill.). Forty μg of cell lysate was separated on 10% SDS-polyacrylamide gels, blotted onto nitrocellulose membranes (Amersham, Piscataway, N. J.), which were then incubated with antibodies according to manufacturer's directions, followed by visualization with ECL reagent (Amersham).

[3] = test system: primary neonatal rat ventricular cardiomyocytes; test: DNA synthesis, mitosis and cytokinesis in primary neonatal rat ventricular cardiomyocytes; format: cell-based
Excerpt: as §1, §2

[4] = test system: adult ventricular cardiomyocytes; test: Transcription of fetal gene program (RT-PCR) in adult ventricular cardiomyocytes; format: cell-based, rat
[5] = test system: Adult male Sprague-Dawley rats; test: Cardiomyocyte cell cycle activity in vivo after intramyocardial injection; parameters: species or system rat; conditions: dispersed isolated cardiomyocytes
[6] = 1 week after intracardiac injection

B1: periostin: Recombinant periostin, purified from HEK293 cells expressing the full-length human cDNA; secreted protein of 834 amino acids (Seq ID. No. 1) (protein, listed as Homo sapiens)
chain: MIPFLPMFSLLLLLIVNPINANNHYDKILAHSRIRGRDQGPNVCALQQILGTKKKYFSTCKNWYKKSICGQKTTVLYECCPGYMRMEGMKGCPAVLPIDHVYGTLGIVGATTTQRYSDASKLREEIEGKGSFTYFAPSNEAWDNLDSDIRRGLESNVNVELLNALHSHMINKRMLTKDLKNGMIIPSMYNNLGLFINHYPNGVVTVNCARIIHGNQIATNGVVHVIDRVLTQIGTSIQDFIEAEDDLSSFRAAAITSDILEALGRDGHFTLFAPTNEAFEKLPRGVLERFMGDKVASEALMKYHILNTLQCSESIMGGAVFETLEGNTIEIGCDGDSITVNGIKMVNKKDIVTNNGVIHLIDQVLIPDSAKQVIELAGKQQTTFTDLVAQLGLASALRPDGEYTLLAPVNNAFSDDTLSMVQRLLKLILQNHILKVKVGLNELYNGQILETIGGKQLRVFVYRTAVCIENSCMEKGSKQGRNGAIHIFREIIKPAEKSLHEKLKQDKRFSTFLSLLEAADLKELLTQPGDWTLFVPTNDAFKGMTSEEKEILIRDKNALQNIILYHLTPGVFIGKGFEPGVTNILKTTQGSKIFLKEVNDTLLVNELKSKESDIMTTNGVIHVVDKLLYPADTPVGNDQLLEILNKLIKYIQIKFVRGSTFKEIPVTVYTTKIITKVVEPKIKVIEGSLQPIIKTEGPTLTKVKIEGEPEFRLIKEGETITEVIHGEPIIKKYTKIIDGVPVEITEKETREERIITGPEIKYTRISTGGGETEETLKKLLQEEVTKVTKFIEGGDGHLFEDEEIKRLLQGDTPVRKLQANKKVQGSRRRLREGRSQ
LVFW BrdU-positive CM nuclei [1, 6]: 0.051 ± 0.0021 % | LVFW CM nuclei [1, 6]: 10.3 ± 0.3 10^$$ per heart | LVFW cytokineses [1, 6]: 0.008±0.002% | LVFW BrdU-positive CM nuclei ([1]; 1 week after intracardiac injection, 3 BrdU injections): 5,322±363 per heart | LVFW BrdU-positive CM nuclei ([1]; 1 week after intracardiac injection, 3 BrdU injections, listed as PN): 5411 ± 376 per heart | LVFW myocardial volume ([1]; 1 week after intracardiac injection, 50 μg periostin (fas1-4 domains) or 50 μg rat fibronectin): 211.3 ± 12.3 mm^3 | LVFW cytokineses ([1]; 1 week after intracardiac injection, listed as Periostin): 821±176 per heart | fibrosis after intramyocardial injection ([1]; FIG. 4a): did not induce | hypertrophy (cardiomyocyte cross-sectional area) after intramyocardial injection ([1]; FIG. 4b): did not induce | H3P-positive binucleated cardiomyocytes ([1]; dispersed isolated cardiomyocytes, in vivo): 0.04±0.01% | DNA synthesis, of cardiomyocyte nuclei in the injected area ([1]; rat, in vivo): 0.7±0.1% | cytokinesis, of cardiomyocyte nuclei in the injected area ([1]; rat, in vivo): 0.1±0.03% | increase of DNA synthesis compared with buffer-injected hearts ([1]; rat, in vivo): 8 fold | increase of cytokinesis compared with buffer-injected hearts ([1]; rat, in vivo): 11.5 fold | cytokinesis, of all differentiated cardiomyocytes ([2]; 9 days stimulation): 0.5±0.2% | BrdU-labeled nuclei in cardiomyocyte cytokineses ([2]; N=15): 100% | first detection of cytokinesis ([2]; time-course of stimulation): ≥ 6 days | activation of ERK1/2 and Akt (ERK1/2 and Akt): activated | DNA synthesis, of cardiomyocytes ([3]; 500 ng/mL, 3 days): 35±5% | increase of DNA synthesis over non-stimulated cardiomyocytes ([3]; 500 ng/mL, 3 days): 5 fold | increase of cardiomyocyte mitoses ([3]; 3 days): 12 fold | increase of cytokineses ([3]; 3 days): 8 fold | induction of cardiomyocyte DNA synthesis ([3]; FIG. 2d, 2e): stimulated DNA synthesis as effectively as FGF | EC50 ([3]; increasing concentrations of periostin (FIG. 2a), read-out: half-maximal stimulation of cardiomyocyte DNA synthesis): 155 ± 25 nM | transcription of SERCA2 [4]: slightly increased | transcription of β-MHC, SMA and ANF [4]: not increased | H3P-positive mononucleated cardiomyocytes [5]: 2±0.2%

Source: US8936806B2, “Periostin induces proliferation of cardiomyocytes and promotes cardiac regeneration” (Children's Medical Center Corporation, priority 2007, dated 2015)
